Laboratory results: publication PMC9949253

Biological target: BTN3A1 full intracellular domain (BFI) (human)
Assay: ITC; 300 μM BTN2A1 ID271 titrated into a mixture of 60 μM BTN3A1 BFI and 120 μM 4-M-HMBPP; nanoITC, independent fit (NanoAnalyze)

- KD with 4-M-HMBPP: 190 µM
- N with 4-M-HMBPP: 0.08
- dH with 4-M-HMBPP: -23.9 kcal/mol
Substance: BTN2A1 intracellular domain (ID271) (domain or fragment)
